Amount of bound SNAP-25, normalized to wild type data for 1 substance are collected here from article PMC4066811.

The target in assay [1] is GST-syntaxin 3B (cytoplasmic domain without the transmembrane domain, residues 2-264), wild type (mouse). The experiment in a line: pull-down.
Assay [2] addresses GST-syntaxin 3B T14E (phosphomimetic mutant, without the transmembrane domain) (mouse). The experiment in a line: pull-down.

For “His6-SNAP-25b (recombinant) (from UniProt P60879-1 1-206) (natural protein)”, the amount of bound SNAP-25, normalized to wild type in assay [1] amounted to 100%; in assay [2] it was 180%.
